Measured values: paper PMC3319868
Read-outs that look alike come from different tables or passages of the source.

Tests used:
HIF-1α;ARNT (HIF-1β) [1] = target: T1, HIF-1α;ARNT (HIF-1β) (human;human?, UniProt Q16665;P27540 1-826;1-789, |); experiment: competition
HIF-1α;ARNT (HIF-1β) [2] = target: T1, HIF-1α;ARNT (HIF-1β); experiment: competition; remark: listed apart in the source

T1 sequence (Q16665 whole entry, chain 1 of 2): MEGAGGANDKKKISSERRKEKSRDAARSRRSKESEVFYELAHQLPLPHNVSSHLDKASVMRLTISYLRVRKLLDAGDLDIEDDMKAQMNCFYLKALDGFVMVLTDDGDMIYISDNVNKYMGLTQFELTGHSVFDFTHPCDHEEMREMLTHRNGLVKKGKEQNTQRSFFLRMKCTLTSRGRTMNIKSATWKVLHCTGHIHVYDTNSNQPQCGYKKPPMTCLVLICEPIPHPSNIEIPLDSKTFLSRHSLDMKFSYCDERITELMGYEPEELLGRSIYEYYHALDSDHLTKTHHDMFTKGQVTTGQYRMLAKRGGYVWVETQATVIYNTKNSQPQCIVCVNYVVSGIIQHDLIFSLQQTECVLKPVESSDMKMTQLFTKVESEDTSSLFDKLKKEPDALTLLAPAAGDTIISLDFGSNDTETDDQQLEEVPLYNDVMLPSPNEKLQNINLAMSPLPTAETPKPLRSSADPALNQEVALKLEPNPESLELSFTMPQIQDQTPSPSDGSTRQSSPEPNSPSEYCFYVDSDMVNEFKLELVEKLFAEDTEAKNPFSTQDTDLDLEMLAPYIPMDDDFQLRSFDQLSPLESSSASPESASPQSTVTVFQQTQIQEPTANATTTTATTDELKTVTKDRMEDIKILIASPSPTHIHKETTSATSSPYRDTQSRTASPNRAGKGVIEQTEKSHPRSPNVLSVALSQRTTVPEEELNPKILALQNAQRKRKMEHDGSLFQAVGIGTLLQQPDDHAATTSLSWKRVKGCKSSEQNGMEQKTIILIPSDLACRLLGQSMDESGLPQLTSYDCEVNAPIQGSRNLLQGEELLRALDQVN
T1 sequence (P27540 whole entry, chain 2 of 2): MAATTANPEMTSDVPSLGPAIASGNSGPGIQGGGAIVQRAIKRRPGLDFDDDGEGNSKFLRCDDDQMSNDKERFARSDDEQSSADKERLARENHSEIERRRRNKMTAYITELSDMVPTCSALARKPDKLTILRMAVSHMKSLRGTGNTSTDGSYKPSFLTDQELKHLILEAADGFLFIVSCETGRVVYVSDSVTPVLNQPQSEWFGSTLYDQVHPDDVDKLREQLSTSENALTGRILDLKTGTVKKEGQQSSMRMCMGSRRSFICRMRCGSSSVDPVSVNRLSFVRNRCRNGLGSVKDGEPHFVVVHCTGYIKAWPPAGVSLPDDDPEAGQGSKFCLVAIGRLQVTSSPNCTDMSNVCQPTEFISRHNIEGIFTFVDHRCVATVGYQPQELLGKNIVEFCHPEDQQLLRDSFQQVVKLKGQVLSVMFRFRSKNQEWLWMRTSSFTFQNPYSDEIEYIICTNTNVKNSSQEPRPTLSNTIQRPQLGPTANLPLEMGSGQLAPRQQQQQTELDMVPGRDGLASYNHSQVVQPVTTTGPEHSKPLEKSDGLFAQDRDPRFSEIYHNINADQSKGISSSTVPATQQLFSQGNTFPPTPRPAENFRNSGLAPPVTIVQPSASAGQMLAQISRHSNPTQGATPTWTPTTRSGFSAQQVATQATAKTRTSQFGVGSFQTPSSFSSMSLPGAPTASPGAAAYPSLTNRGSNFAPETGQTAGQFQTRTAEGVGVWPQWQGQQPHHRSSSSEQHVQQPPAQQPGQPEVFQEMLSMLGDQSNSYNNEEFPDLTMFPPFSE

| Binder | binding result (HIF-1α;ARNT (HIF-1β) [1]) | binding result (HIF-1α;ARNT (HIF-1β) [2]) |
| --- | --- | --- |
| mutated HRE (OL570/OL571) (dsDNA) DNA 1: AGCTTGCCCTAGCTGCTGTCTCAGA DNA 2: TCTGAGACAGCAGCTAGGGCAAGCT | no binding |  |
| wild type HRE (OL568/OL569) (dsDNA) DNA 1: AGCTTGCCCTACGTGCTGTCTCAGA DNA 2: TCTGAGACAGCACGTAGGGCAAGCT |  | binds |
